Results from article PMC9482650, “Quantitative fragmentomics allow affinity mapping of interactomes” (Nature Communications, 2022).

Key:
Assay in all cases: holdup assay
Parameters in all cases: key: below the threshold = too weak to quantify, mostly under pKd 3.1 to 4
[1] = target: T1, APBA3_1, O96018
T1 sequence (O96018 389-490, limits assumed, looked up): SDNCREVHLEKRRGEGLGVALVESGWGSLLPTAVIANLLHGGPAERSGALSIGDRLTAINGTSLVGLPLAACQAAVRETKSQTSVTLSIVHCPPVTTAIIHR

[2] = target: T2, DFNB31_1, Q9P202
T2 sequence (Q9P202 135-233, limits assumed, looked up): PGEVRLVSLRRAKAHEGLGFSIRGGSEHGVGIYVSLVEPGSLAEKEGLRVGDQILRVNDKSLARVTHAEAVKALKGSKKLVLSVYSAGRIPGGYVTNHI

[3] = target: T3, DFNB31_3, Q9P202
T3 sequence (Q9P202 811-907, limits assumed, looked up): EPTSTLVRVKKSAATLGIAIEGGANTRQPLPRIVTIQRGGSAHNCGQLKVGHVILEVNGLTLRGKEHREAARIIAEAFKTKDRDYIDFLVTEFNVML

[4] = target: T4, DLG3_2, Q92796
T4 sequence (Q92796 221-321, limits assumed, looked up): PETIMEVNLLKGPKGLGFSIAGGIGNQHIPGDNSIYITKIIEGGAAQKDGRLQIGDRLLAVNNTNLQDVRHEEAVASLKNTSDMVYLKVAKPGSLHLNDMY

[5] = target: DLG5_1, Q8TDM6
[6] = target: FRMPD3, Q5JV73
[7] = target: GORASP2, Q9H8Y8
[8] = target: GRASP, Q7Z6J2
[9] = target: GRID2IP_2, A4D2P6
[10] = target: T5, GRIP1_4, Q9Y3R0
T5 sequence (Q9Y3R0 467-571, limits assumed, looked up): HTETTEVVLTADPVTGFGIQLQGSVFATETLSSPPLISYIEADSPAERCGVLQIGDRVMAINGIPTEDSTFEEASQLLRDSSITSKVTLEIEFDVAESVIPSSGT

[11] = target: GRIP2_4, Q9C0E4
[12] = target: GRIP2_6, Q9C0E4
[13] = target: T6, HTRA3, P83110
T6 sequence (P83110 354-453, limits assumed, looked up): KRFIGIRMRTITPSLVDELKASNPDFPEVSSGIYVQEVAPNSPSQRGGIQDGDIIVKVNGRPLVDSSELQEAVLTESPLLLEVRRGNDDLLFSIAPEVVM

[14] = target: IL16_3, Q14005
[15] = target: IL16_4, Q14005
[16] = target: Inadl_9, Q8NI35
[17] = target: LNX1_2, Q8TBB1
[18] = target: MAGI2_2, Q86UL8
[19] = target: T7, MPDZ_12, O75970
T7 sequence (O75970 1857-1958, limits assumed, looked up): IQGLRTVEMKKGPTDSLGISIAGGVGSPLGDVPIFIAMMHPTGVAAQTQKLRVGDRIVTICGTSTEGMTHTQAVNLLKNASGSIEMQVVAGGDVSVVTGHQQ

[20] = target: T8, MPP2, Q14168
T8 sequence (Q14168 180-250, limits assumed, looked up): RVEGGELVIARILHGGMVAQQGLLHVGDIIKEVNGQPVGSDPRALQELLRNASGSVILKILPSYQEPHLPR

[21] = target: NOS1, P29475
[22] = target: T9, PDZRN3_1, Q9UPQ7
T9 sequence (Q9UPQ7 244-349, limits assumed, looked up): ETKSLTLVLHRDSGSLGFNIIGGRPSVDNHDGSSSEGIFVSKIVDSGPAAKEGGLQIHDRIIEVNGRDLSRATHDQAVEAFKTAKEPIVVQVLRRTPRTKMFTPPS

[23] = target: PICK1, Q9NRD5
[24] = target: T10, RADIL, Q96JH8
T10 sequence (Q96JH8 971-1071, limits assumed, looked up): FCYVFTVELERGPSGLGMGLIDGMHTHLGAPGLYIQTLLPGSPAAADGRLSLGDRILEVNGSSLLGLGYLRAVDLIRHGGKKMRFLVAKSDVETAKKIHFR

[25] = target: T11, TIAM2, Q8IVF5
T11 sequence (Q8IVF5 885-986, limits assumed, looked up): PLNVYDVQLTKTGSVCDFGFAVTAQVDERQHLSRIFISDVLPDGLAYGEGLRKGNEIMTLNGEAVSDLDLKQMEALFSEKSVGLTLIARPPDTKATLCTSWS

[26] = target: TJP1_3, Q07157
[27] = plain residues with an end cap or a label only (N-terminal biotin on a linker: ado-ado)
[28] = plain residues with an end cap or a label only (N-terminal biotin on a linker: ahx)
[29] = plain residues with an end cap or a label only (N-terminal biotin on a linker: ttds)

Chain of DLG5_1, Q8TDM6 (Q8TDM6 617-713): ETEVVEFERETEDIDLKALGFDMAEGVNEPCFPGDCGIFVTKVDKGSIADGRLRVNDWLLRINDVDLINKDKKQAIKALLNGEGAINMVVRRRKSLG
Chain of NOS1, P29475 (P29475 9-101): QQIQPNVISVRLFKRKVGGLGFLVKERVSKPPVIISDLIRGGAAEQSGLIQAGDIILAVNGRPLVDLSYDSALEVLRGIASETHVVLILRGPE
Chain of IL16_3, Q14005 (Q14005 1107-1207): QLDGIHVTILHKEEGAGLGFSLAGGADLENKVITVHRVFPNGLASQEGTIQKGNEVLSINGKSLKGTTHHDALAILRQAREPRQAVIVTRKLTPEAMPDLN
Chain of GRID2IP_2, A4D2P6 (A4D2P6 272-370): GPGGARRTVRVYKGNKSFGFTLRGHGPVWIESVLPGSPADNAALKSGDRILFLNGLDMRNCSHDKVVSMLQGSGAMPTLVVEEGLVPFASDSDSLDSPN
Chain of GRIP2_6, Q9C0E4 (Q9C0E4 648-740): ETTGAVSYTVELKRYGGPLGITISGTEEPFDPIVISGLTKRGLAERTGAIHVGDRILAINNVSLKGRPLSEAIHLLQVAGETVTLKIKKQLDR
Chain of MAGI2_2, Q86UL8 (Q86UL8 410-522): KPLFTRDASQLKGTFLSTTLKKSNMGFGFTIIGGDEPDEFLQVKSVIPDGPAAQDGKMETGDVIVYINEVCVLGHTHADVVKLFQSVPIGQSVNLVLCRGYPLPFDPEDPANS
Chain of FRMPD3, Q5JV73 (Q5JV73 12-100): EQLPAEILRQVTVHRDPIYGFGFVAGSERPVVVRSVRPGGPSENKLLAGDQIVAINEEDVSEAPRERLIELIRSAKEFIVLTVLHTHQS
Chain of GRIP2_4, Q9C0E4 (Q9C0E4 446-548): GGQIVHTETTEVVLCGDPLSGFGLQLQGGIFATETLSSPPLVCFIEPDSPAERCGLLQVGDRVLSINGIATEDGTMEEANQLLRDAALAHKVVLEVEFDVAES
Chain of PICK1, Q9NRD5 (Q9NRD5 17-115): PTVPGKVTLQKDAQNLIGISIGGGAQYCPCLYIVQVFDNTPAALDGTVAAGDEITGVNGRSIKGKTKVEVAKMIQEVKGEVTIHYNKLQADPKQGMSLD
Chain of IL16_4, Q14005 (Q14005 1229-1329): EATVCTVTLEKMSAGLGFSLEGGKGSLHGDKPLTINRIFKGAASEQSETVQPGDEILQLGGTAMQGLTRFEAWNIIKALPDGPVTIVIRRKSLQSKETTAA
Chain of TJP1_3, Q07157 (Q07157 416-512): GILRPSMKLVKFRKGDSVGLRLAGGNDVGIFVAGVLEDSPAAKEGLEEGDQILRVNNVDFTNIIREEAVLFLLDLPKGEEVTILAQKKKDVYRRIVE
Chain of LNX1_2, Q8TBB1 (Q8TBB1 371-470): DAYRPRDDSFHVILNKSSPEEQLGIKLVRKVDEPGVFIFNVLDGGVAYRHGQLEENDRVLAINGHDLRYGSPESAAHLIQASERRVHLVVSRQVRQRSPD
Chain of GRASP, Q7Z6J2 (Q7Z6J2 96-193): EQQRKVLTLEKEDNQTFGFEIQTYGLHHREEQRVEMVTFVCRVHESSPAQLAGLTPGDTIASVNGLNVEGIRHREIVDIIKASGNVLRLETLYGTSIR
Chain of Inadl_9, Q8NI35 (Q8NI35 1530-1615): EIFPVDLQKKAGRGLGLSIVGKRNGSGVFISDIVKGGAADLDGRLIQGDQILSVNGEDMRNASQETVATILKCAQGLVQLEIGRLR

SVVSERISSV [HTR2C, P28335]
pKd [1, 27]: below the threshold | pKd [2, 27]: below the threshold | pKd [3, 27]: 3.76 | pKd [4, 27]: 4.68 | pKd [5, 27]: below the threshold | pKd [6, 27]: below the threshold | pKd [7, 27]: 3.89 | pKd [8, 27]: 4.55 | pKd [9, 27]: 4.44 | pKd [10, 27]: below the threshold | pKd [11, 27]: below the threshold | pKd [12, 27]: below the threshold | pKd [13, 27]: below the threshold | pKd [14, 27]: below the threshold | pKd [15, 27]: below the threshold | pKd [16, 27]: below the threshold | pKd [17, 27]: below the threshold | pKd [18, 27]: 3.77 | pKd [19, 27]: below the threshold | pKd [20, 27]: below the threshold | pKd [21, 27]: 3.58 | pKd [22, 27]: 3.51 | pKd [23, 27]: below the threshold | pKd [24, 27]: 3.74 | pKd [25, 27]: 3.88 | pKd [26, 27]: below the threshold

KTSAHHATFV [RGS12, O14924]
pKd [1, 28]: below the threshold | pKd [2, 28]: 3.61 | pKd [3, 28]: below the threshold | pKd [4, 28]: 3.92 | pKd [5, 28]: below the threshold | pKd [6, 28]: below the threshold | pKd [7, 28]: 4.12 | pKd [8, 28]: 4.12 | pKd [9, 28]: 4.27 | pKd [10, 28]: below the threshold | pKd [11, 28]: below the threshold | pKd [12, 28]: below the threshold | pKd [13, 28]: 4.42 | pKd [14, 28]: below the threshold | pKd [15, 28]: below the threshold | pKd [16, 28]: 4.42 | pKd [17, 28]: 3.54 | pKd [18, 28]: 4.29 | pKd [19, 28]: 3.78 | pKd [20, 28]: below the threshold | pKd [21, 28]: 3.66 | pKd [22, 28]: below the threshold | pKd [23, 28]: below the threshold | pKd [24, 28]: 5.28 | pKd [25, 28]: below the threshold | pKd [26, 28]: below the threshold

IQREDQETAV [DGKZ, Q13574]
pKd [1, 29]: below the threshold | pKd [2, 29]: 4.81 | pKd [3, 29]: below the threshold | pKd [4, 29]: 4.88 | pKd [5, 29]: below the threshold | pKd [6, 29]: below the threshold | pKd [7, 29]: below the threshold | pKd [8, 29]: 3.67 | pKd [9, 29]: 3.98 | pKd [10, 29]: below the threshold | pKd [11, 29]: below the threshold | pKd [12, 29]: below the threshold | pKd [13, 29]: below the threshold | pKd [14, 29]: below the threshold | pKd [15, 29]: below the threshold | pKd [16, 29]: below the threshold | pKd [17, 29]: below the threshold | pKd [18, 29]: 3.65 | pKd [19, 29]: below the threshold | pKd [20, 29]: below the threshold | pKd [21, 29]: 4.34 | pKd [22, 29]: 4.91 | pKd [23, 29]: below the threshold | pKd [24, 29]: below the threshold | pKd [25, 29]: below the threshold | pKd [26, 29]: below the threshold

MERLRVETDV [ARHGEF16, Q5VV41]
pKd [1, 29]: below the threshold | pKd [2, 29]: below the threshold | pKd [3, 29]: below the threshold | pKd [4, 29]: 5.61 | pKd [5, 29]: below the threshold | pKd [6, 29]: below the threshold | pKd [7, 29]: 4.25 | pKd [8, 29]: below the threshold | pKd [9, 29]: 3.57 | pKd [10, 29]: below the threshold | pKd [11, 29]: below the threshold | pKd [12, 29]: below the threshold | pKd [13, 29]: below the threshold | pKd [14, 29]: below the threshold | pKd [15, 29]: below the threshold | pKd [16, 29]: below the threshold | pKd [17, 29]: 3.62 | pKd [18, 29]: 4.38 | pKd [19, 29]: below the threshold | pKd [20, 29]: below the threshold | pKd [21, 29]: below the threshold | pKd [22, 29]: 3.53 | pKd [23, 29]: below the threshold | pKd [24, 29]: below the threshold | pKd [25, 29]: below the threshold | pKd [26, 29]: below the threshold
